For eight molecules, Kd, koff and kon results are on record in patent US20240360201A1 (BIOCYTOGEN PHARMACEUTICALS BEIJING, published 2024).

Where two headings read alike, the source gives them in different places.

Assay in all cases: SPR Biacore T200; binder captured on protein A chip, target as analyte
In general terms: Surface plasmon resonance follows binding to a sensor surface in real time, without labels.

One test deals with human CTLA4 (hCTLA4-His) (human, UniProt P16410 36-161, limits assumed). As for the experimental part:
(§1) Binding affinities of the fusion proteins against human CTLA4 (hCTLA4-His) or human PD-L1 (hPDL1) were measured by surface plasmon resonance (SPR) using Biacore™ T200 biosensor equipped with pre-immobilized protein A sensor chips. A CTLA4 antibody CT4-4G12-IgG1 (CT4) was used as a control. ATOR1015-CD86 (CD86) and KN035-IgG1 (with D265A mutation in heavy chain constant domain) were also used as controls.

The target of test [1] is T1, 6×Histidine-tagged human PD-L1 protein (hPDL1-His) (human, UniProt Q9NZQ7 19-238).
T1 construct: also called hPL1-His; His-tagged human PD-L1
T1 sequence (Q9NZQ7 19-238 limits assumed): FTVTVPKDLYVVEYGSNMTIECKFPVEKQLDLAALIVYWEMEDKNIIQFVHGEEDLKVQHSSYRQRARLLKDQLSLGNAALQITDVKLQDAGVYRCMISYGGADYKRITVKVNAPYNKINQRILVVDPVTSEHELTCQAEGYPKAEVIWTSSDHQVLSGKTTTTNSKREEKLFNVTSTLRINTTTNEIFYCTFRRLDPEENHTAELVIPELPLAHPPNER
How it is done:
as §1

The target in test [2] is T1, 6×Histidine-tagged human PD-L1 protein …. This is another data set of the same source.
For test [3] the target is unchanged. The source holds these as a separate data set.

Sequence of human CTLA4 (hCTLA4-His) (P16410 36-161 limits assumed): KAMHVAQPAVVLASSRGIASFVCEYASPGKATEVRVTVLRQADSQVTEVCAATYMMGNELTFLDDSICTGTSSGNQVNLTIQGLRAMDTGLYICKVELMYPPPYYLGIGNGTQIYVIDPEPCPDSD

B1: PDL1-CD86-3A-IgG1 (antibody)
heavy: EVQLLESGGGLVQPGGSLRLSCAASGFTFSSYIMMWVRQAPGKGLEWVSSIYPSGGITFYADTVKGRFTISRDNSKNTLYLQMNSLRAEDTAVYYCARIKLGTVTTVDYWGQGTLVTVSSASTKGPSVFPLAPSSKSTSGGTAALGCLVKDYFPEPVTVSWNSGALTSGVHTFPAVLQSSGLYSLSSVVTVPSSSLGTQTYICNVNHKPSNTKVDKKVEPKSCDKTHTCPPCPAPELLGGPSVFLFPPKPKDTLMISRTPEVTCVVVDVSHEDPEVKFNWYVDGVEVHNAKTKPREEQYNSTYRVVSVLTVLHQDWLNGKEYKCKVSNKALPAPIEKTISKAKGQPREPQVYTLPPSRDEGGGGSGGGGSAPLKIQAYFNETADLPCQFANSQNLSLSELVVFWQDQENLVLNEVYLGKERFDSVDSKYMGRTSFDSDSWTLRLHNLQIKDKGRYQCIIHHKKPTGMINIHQMNSELSVLAGGGGSGGGGSVSLTCLVKGFYPSDIAVEWESNGQPENNYKTTPPVLDSDGSFFLYSKLTVDKSRWQQGNVFSCSVMHEALHNHYTQKSLSLSPGK
light: QSALTQPASVSGSPGQSITISCTGTSSDVGGYNYVSWYQQHPGKAPKLMIYDVSNRPSGVSNRFSGSKSGNTASLTISGLQAEDEADYYCSSYTSSSTRVFGTGTKVTVLGQPKANPTVTLFPPSSEELQANKATLVCLISDFYPGAVTVAWKADGSPVKAGVETTKPSKQSNNKYAASSYLSLTPEQWKSHRSYSCQVTHEGSTVEKTVAPTECS
notes: IgG1
As to B1, in the test with human CTLA4 (hCTLA4-His), binding was characterised by a dissociation constant (Kd) of 1.74 nM; the koff (usually a measure of how fast the partners let go of each other) was 0.000693 s⁻¹; the kon – broadly, the second-order rate constant of association – turned out to be 397000 M⁻¹ s⁻¹.

B2: PDL1-CD86-3A-IgG4 (antibody)
chain 1: EVQLLESGGGLVQPGGSLRLSCAASGFTFSSYIMMWVRQAPGKGLEWVSSIYPSGGITFYADTVKGRFTISRDNSKNTLYLQMNSLRAEDTAVYYCARIKLGTVTTVDYWGQGTLVTVSSASTKGPSVFPLAPCSRSTSESTAALGCLVKDYFPEPVTVSWNSGALTSGVHTFPAVLQSSGLYSLSSVVTVPSSSLGTKTYTCNVDHKPSNTKVDKRVESKYGPPCPSCPAPEFLGGPSVFLFPPKPKDTLMISRTPEVTCVVVDVSQEDPEVQFNWYVDGVEVHNAKTKPREEQFNSTYRVVSVLTVLHQDWLNGKEYKCKVSNKGLPSSIEKTISKAKGQPREPQVYTLPPSQEEGGGGSGGGGSAPLKIQAYFNETADLPCQFANSQNLSLSELVVFWQDQENLVLNEVYLGKERFDSVDSKYMGRTSFDSDSWTLRLHNLQIKDKGRYQCIIHHKKPTGMINIHQMNSELSVLAGGGGSGGGGSVSLTCLVKGFYPSDIAVEWESNGQPENNYKTTPPVLDSDGSFFLYSRLTVDKSRWQEGNVFSCSVMHEALHNHYTQKSLSLSLGK
chain 2: B1 light
Regarding B2, in the test with human CTLA4 (hCTLA4-His), the Kd (in general, a measure of binding affinity in units of concentration) stood at 1.88 nM; the koff stood at 0.000684 s⁻¹; the kon was 364000 M⁻¹ s⁻¹.

B3: KN035-IgG1 (D265A) (Fc fusion, not shown: a dimerising Fc or GST)
VHH: QVQLVESGGGLVQPGGSLRLSCAASGFTFSRRCMAWFRQAPGKERERVAKLLTTSGSTYLADSVKGRFTISRDNSKNTVYLQMNSLRAEDTAVYYCAADSFEDPTCTLVTSSGAFQYWGQGTLVTVSS
notes: Control; with D265A mutation in heavy chain constant domain; also called KN035-PDL1
Consider B3, for which, in test [1], binding was characterised by a dissociation constant (Kd) of 11.5 nM, the koff turned out to be 0.0204 s⁻¹ and the kon worked out at 1.78e+06 M⁻¹ s⁻¹.

B4: 3F2-hIL7-3A (antibody)
heavy: QVQLQESGPGLVKPSETLSLTCTVSGYSITSGYNWHWIRQFPGNGLEWMGYIHHSSITNYNPSLKSRITISRDTSKNQFSLKLSSVTAADTATYYCAREGYDYDWFAYWGQGTLVTVSSASTKGPSVFPLAPSSKSTSGGTAALGCLVKDYFPEPVTVSWNSGALTSGVHTFPAVLQSSGLYSLSSVVTVPSSSLGTQTYICNVNHKPSNTKVDKKVEPKSCDKTHTCPPCPAPELLGGPSVFLFPPKPKDTLMISRTPEVTCVVVDVSHEDPEVKFNWYVDGVEVHNAKTKPREEQYNSTYRVVSVLTVLHQDWLNGKEYKCKVSNKALPAPIEKTISKAKGQPREPQVYTLPPSRDEGGGGSGGGGSDCDIEGKDGKQYESVLMVSIDQLLDSMKEIGSNCLNNEFNFFKRHICDANKEGMFLFRAARKLRQFLKMNSTGDFDLHLLKVSEGTTILLNCTGQVKGRKPAALGEAQPTKSLEENKSLKEQKKLNDLCFLKRLLQEIKTCWNKILMGTKEHGGGGSGGGGSVSLTCLVKGFYPSDIAVEWESNGQPENNYKTTPPVLDSDGSFFLYSKLTVDKSRWQQGNVFSCSVMHEALHNHYTQKSLSLSPGK
light: DIVLTQSPDFQSVTPKEKVTITCRASQSISNNLHWYQQKPDESPKLLIKYASQSISGIPSRFSGSGSGTDFTLTINSVEAEDFAMYFCQQSKSWPFTFGQGTRLEIKRTVAAPSVFIFPPSDEQLKSGTASVVCLLNNFYPREAKVQWKVDNALQSGNSQESVTEQDSKDSTYSLSSTLTLSKADYEKHKVYACEVTHQGLSSPVTKSFNRGEC
notes: IgG1
In test [2], B4 gave a Kd of 0.493 nM, a koff of 0.000879 s⁻¹ and an association rate constant (kon) of 1.78e+06 M⁻¹ s⁻¹.

B5: 3F2-hIL7-3A-mIFNa4 (antibody, IgG1)
heavy: QVQLQESGPGLVKPSETLSLTCTVSGYSITSGYNWHWIRQFPGNGLEWMGYIHHSSITNYNPSLKSRITISRDTSKNQFSLKLSSVTAADTATYYCAREGYDYDWFAYWGQGTLVTVSSASTKGPSVFPLAPSSKSTSGGTAALGCLVKDYFPEPVTVSWNSGALTSGVHTFPAVLQSSGLYSLSSVVTVPSSSLGTQTYICNVNHKPSNTKVDKKVEPKSCDKTHTCPPCPAPELLGGPSVFLFPPKPKDTLMISRTPEVTCVVVDVSHEDPEVKFNWYVDGVEVHNAKTKPREEQYNSTYRVVSVLTVLHQDWLNGKEYKCKVSNKALPAPIEKTISKAKGQPREPQVYTLPPSRDEGGGGSGGGGSDCDIEGKDGKQYESVLMVSIDQLLDSMKEIGSNCLNNEFNFFKRHICDANKEGMFLFRAARKLRQFLKMNSTGDFDLHLLKVSEGTTILLNCTGQVKGRKPAALGEAQPTKSLEENKSLKEQKKLNDLCFLKRLLQEIKTCWNKILMGTKEHGGGGSGGGGSVSLTCLVKGFYPSDIAVEWESNGQPENNYKTTPPVLDSDGSFFLYSKLTVDKSRWQQGNVFSCSVMHEALHNHYTQKSLSLSPGKGGGGSGGGGSGGGGSGGGGSCDLPHTYNLGNKRALTVLEEMRRLPPLSCLKDRKDFGFPLEKVDNQQIQKAQAILVLRDLTQQILNLFTSKDLSATWNATLLDSFCNDLHQQLNDLKACVMQEPPLTQEDSLLAVRTYFHRITVYLRKKKHSLCAWEVIRAEVWRALSSSTNLLARLSEEKE
light: B4 light
notes: IgG1
In test [2], B5 showed a Kd of 0.685 nM, a koff of 0.000803 s⁻¹ and a kon of 1.17e+06 M⁻¹ s⁻¹.

B6: 3F2-hIL21-3A-mIFNa4 (antibody, IgG1)
heavy: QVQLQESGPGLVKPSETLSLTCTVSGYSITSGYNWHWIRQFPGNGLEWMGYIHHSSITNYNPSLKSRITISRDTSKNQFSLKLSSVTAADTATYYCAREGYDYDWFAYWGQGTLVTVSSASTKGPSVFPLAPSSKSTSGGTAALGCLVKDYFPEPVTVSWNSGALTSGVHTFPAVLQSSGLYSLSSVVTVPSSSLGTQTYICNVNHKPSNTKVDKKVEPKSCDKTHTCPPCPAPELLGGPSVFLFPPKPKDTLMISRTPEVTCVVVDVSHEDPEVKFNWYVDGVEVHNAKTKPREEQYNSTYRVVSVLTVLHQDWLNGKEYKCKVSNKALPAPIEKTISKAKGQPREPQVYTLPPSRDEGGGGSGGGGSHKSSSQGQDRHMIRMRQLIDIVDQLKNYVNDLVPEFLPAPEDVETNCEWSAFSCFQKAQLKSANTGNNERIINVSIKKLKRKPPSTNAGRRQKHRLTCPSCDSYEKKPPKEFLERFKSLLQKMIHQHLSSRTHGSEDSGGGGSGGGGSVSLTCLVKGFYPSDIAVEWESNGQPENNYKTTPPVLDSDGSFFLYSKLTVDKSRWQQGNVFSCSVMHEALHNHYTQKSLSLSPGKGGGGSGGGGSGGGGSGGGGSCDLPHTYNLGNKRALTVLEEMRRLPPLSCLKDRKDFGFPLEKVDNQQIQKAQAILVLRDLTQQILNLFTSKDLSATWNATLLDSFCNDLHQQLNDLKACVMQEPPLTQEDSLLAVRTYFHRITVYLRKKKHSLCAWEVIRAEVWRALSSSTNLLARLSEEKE
light: B4 light
notes: IgG1
In test [3], B6 returned a Kd of 0.613 nM, a koff of 0.00072 s⁻¹ and a kon of 1.17e+06 M⁻¹ s⁻¹.

B7: 3F2-hIL21-3A (antibody, IgG1)
heavy: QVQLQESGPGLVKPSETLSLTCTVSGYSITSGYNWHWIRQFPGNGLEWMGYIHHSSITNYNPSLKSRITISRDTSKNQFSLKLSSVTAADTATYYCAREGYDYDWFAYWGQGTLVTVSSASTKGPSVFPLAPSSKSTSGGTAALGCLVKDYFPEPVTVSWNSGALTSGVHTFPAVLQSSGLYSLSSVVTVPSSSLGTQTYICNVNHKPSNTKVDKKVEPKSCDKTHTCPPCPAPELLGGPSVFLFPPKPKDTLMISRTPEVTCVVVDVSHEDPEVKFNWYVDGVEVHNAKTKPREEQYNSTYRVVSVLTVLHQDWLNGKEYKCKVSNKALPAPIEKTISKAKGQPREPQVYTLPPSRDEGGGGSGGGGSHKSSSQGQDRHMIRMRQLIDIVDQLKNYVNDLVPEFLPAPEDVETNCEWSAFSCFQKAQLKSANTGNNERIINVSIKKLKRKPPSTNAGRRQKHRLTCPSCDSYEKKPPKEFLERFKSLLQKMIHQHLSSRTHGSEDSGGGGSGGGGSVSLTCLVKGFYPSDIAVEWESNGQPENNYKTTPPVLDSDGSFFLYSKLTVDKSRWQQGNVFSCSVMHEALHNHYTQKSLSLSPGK
light: B4 light
notes: IgG1
In test [3], B7 yielded a dissociation constant Kd of 0.515 nM, a koff of 0.000613 s⁻¹ and a kon of 1.19e+06 M⁻¹ s⁻¹.

B8: ATOR1015-CD86 (ligand)
chain: APLKIQAYFNETADLPCQFANSQNLSLSELVVFWQDQENLVLNEVYLGKERFDSVDSKYMGRTSFDSDSWTLRLHNLQIKDKGRYQCIIHHKKPTGMINIHQMNSELSVLA
notes: Used as control captured on a protein A chip
Turning to B8, in the test with human CTLA4 (hCTLA4-His), the Kd was 1.02 nM, the koff stood at 0.000297 s⁻¹ and the kon was determined as 291000 M⁻¹ s⁻¹.
